What follows are substances tested against ZU5 domain of ankyrin (assay: ITC).
Chain of ZU5 domain of ankyrin (P16157 913-1068): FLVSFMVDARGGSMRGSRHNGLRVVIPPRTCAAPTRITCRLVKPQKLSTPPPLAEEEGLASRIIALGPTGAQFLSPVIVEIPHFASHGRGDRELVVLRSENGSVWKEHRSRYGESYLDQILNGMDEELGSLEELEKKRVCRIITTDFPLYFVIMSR

Substance	dH [kcal/mol]
βI14-15 E1710A (domain or fragment)	3.73
βI14-15 E1784A (domain or fragment)	5.21
βI14-15 D1700A (domain or fragment)	4.42
βI14-15 E1708A (domain or fragment)	3.27
βI14-15 A1867P (domain or fragment)	0.904
βI14-15 D1781A (domain or fragment)	5.52
wild type βI-spectrin 14-15 di-repeat (domain or fragment)	5.98
βI14-15 E1703A (domain or fragment)	4.82
βI14-15 T1788A (domain or fragment)	2.08
βI14-15 D1701A (domain or fragment)	4.64
βI14-15 Y1866A (domain or fragment)	2.52

Source: PMC2839365
